Data published in patent publication US20240239894A1, “THERAPEUTIC BINDING MOLECULES” (MedImmune Limited, priority 2020, published 2024).

B1: E02-GL: germlined ZY0EQD-E02, VH SEQ ID NO: 45, VL SEQ ID NO: 34; antibody intermediate of E02-GL-SG3932 (antibody, V domains shown)
VH: QVQLQQWGAGLLKPSETLSLACTVYGGSFSGYYWNWIRQPPGKGLEWIGEINHSGSTSYNPSLKSRVTISVDTSKNQFSLKLSSVTAADTAVYYCARVLYNWNVDSWGQGTLVTVSS
VL: DIQMTQSPSSLSASVGDRVTITCRASQDIRNDVGWYQQKPGKAPKRLIYAASRLQSGVPSRFSGSGSGTEFTLTISSLQPEDFATYYCLQHNSYPRTFGQGTKVEIK
B2: E02-GL-SG3249: clone E02-GL (Maia heavy chain backbone) conjugated to the PBD cytotoxin SG3249 (conjugate)
heavy: QVQLQQWGAGLLKPSETLSLACTVYGGSFSGYYWNWIRQPPGKGLEWIGEINHSGSTSYNPSLKSRVTISVDTSKNQFSLKLSSVTAADTAVYYCARVLYNWNVDSWGQGTLVTVSSASTKGPSVFPLAPSSKSTSGGTAALGCLVKDYFPEPVTVSWNSGALTSGVHTFPAVLQSSGLYSLSSVVTVPSSSLGTQTYICNVNHKPSNTKVDKRVEPKSCDKTHTCPPCPAPELLGGPSCVFLFPPKPKDTLMISRTPEVTCVVVDVSHEDPEVKFNWYVDGVEVHNAKTKPREEQYNSTYRVVSVLTVLHQDWLNGKEYKCKVSNKALPAPIEKTISKAKGQPREPQVYTLPPSREEMTKNQVSLTCLVKGFYPSDIAVEWESNGQPENNYKTTPPVLDSDGSFFLYSKLTVDKSRWQQGNVFSCSVMHEALHNHYTQKSLSLSPGK
light: DIQMTQSPSSLSASVGDRVTITCRASQDIRNDVGWYQQKPGKAPKRLIYAASRLQSGVPSRFSGSGSGTEFTLTISSLQPEDFATYYCLQHNSYPRTFGQGTKVEIKRTVAAPSVFIFPPSDEQLKSGTASVVCLLNNFYPREAKVQWKVDNALQSGNSQESVTEQDSKDSTYSLSSTLTLSKADYEKHKVYACEVTHQGLSSPVTKSFNRGEC

Columns and labels:
HT29 hB7H4 clone 26 = assay: E02-GL MESF on cell line; format: cell-based, human
HCC1954 = assay: E02-GL MESF on cell line; format: cell-based
Zr75-1 = assay: E02-GL MESF on cell line; format: cell-based
HCC1569 = assay: E02-GL MESF on cell line; format: cell-based
[1] = molecular target: T1, immobilized recombinant human B7-H4 (Homo sapiens, UniProt Q7Z7D3); assay: DELFIA-ELISA; format: binding
T1 sequence (Q7Z7D3 25-282): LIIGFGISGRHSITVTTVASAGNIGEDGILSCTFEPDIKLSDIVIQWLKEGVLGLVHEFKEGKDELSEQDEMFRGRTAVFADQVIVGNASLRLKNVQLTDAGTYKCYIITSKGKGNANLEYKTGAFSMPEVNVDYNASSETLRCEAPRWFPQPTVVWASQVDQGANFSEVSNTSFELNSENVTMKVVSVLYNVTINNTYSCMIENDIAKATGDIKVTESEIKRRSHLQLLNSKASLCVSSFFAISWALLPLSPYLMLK
Procedure: To assess whether conjugation of the topoisomerase 1 linker-warhead affected binding properties of the E02-INT antibody, the binding affinity of E02-INT and E02-GL-SG3932 were measured using a DELFIA-ELISA method and an SPR method. […] The kinetic rate constants (kon and koff) and equilibrium dissociation constants (KD) of E02-INT and E02-GL-SG3932 for human B7-H4 antigen was also determined by SPR, using an antibody capture method.

[2] = system: HT29-huB7-H4 Clone 4 and HT29-huB7-H4 Clone 26; assay: Flow cytometry binding; format: cell-based, human
Source text: (§1) Flow cytometry was used to measure binding of antibody E02-INT and E02-GL-SG3932 to the human breast cancer cell lines MX-1 and MDA-MB-468, and to engineered HT29 colon cancer cells stably expressing human B7-H4.

MDA-MB-468 cells = assay: Flow cytometry binding; format: cell-based, human; details: endogenously-expressed B7-H4
Source text: as §1

MX-1 cells = assay: Flow cytometry binding; format: cell-based, human; details: endogenously-expressed B7-H4
Source text: as §1

[3] = system: B7-H4-negative non-transduced HT29; assay: Flow cytometry binding; format: cell-based, human
[4] = system: SKBR3 cell line (target cell); assay: ADCC with primary human NK cells; format: cell-based; details: 1 μg/mL; NK cells from healthy donors
Source text: When IgG antibodies bind cell surface antigens via their Fab domains, the Fc portion of the antibodies can engage with FcγRIIIa on natural killer cells. The interaction of the Fc domain with FcγRIIIa induces cross-linking of the FcγRs, which triggers the release of cytotoxic granules containing perforin and granzymes, leading to the death of the target cell, a process called antibody-dependent cellular cytotoxicity (ADCC). The potential of antibody E02-INT and E02-GL-SG3932 to initiate ADCC activity was evaluated utilizing isolated primary human NK cells and the human breast cancer SKBR3 cell line as the target cell.
Next, human breast cancer SK-BR-3 cells were co-cultured with NK cells isolated from six healthy donors in the presence of 1 μg/mL E02-GL-SG3932, antibody intermediate E02-INT, isotype-matched control antibody NIP228, and the isotype-matched control ADC NIP228-SG3932 (FIG. 37). ADCC activity was evaluated by Incycte® Annexin V Dye binding of extracellular surface exposure of phosphatidyl serine on apoptotic cells, yielding a bright and stable red fluorescent signal. The fold-change was based on maximum cell death of non-drug treated NK/SK-BR-3 co-cultured cells. Maximum cell death was calculated by dividing the average red objects in experimental wells by the average maximum cell death in Staurosporine treated SK-BR-3 cells.

[5] = system: non-transfected HEK293 cells; assay: In vitro cytotoxicity; format: cell-based
Source text: The clone E02-GL was conjugated to the cytotoxin SG3249 (providing E02-GL-SG3249), and tested for the ability to target and kill both cynomolgus B7-H4 transfected and non-transfected B7-H4 cells. For convenience, the antibody tested in this example comprised the Maia heavy chain backbone (e.g. having a cysteine insertion providing an additional site to which SG3249 can conjugate, see SEQ ID NO: 48) was used. No loss of efficacy occurs where other heavy chain backbones (e.g. lacking such cysteine insertion, for example see SEQ ID NO: 52) is used. The antibody R347 conjugated to SG3249 was used as a control.

HCC1569 xenograft = assay: Tumour xenograft; format: in vivo, mice; details: HER2 positive breast cancer, heterogeneous B7-H4
Procedure: (§2) Tumour xenografts were prepared on mice using the following cancer cell lines: • OVCAR4 (Cisplatin refractory ovarian cancer; high B7-H4 expression) • HCC1569 (HER2 positive breast cancer; heterogeneous B7-H4 expression) • MDA-MB-468 (Triple negative breast cancer; low B7-H4 expression)

MDA-MB-468 xenograft = assay: Tumour xenograft; format: in vivo, mice; details: triple negative breast cancer, low B7-H4
Procedure: as §2

OVCAR4 xenograft = assay: Tumour xenograft; format: in vivo, mice; details: cisplatin refractory ovarian cancer, high B7-H4
Procedure: as §2

[6] = system: B7-H4 heterogeneous HT29 tumours (1:1 expressing and non-expressing); assay: Bystander killing in vivo
Source text: B7-H4 heterogeneous tumours were generated by co-implantation of B7-H4 expressing HT29 cell lines with non-expressing HT29 cells (1:1 ratio). […] This is highly advantageous, as the inventors have found B7-H4 to be heterogeneously expressed within tumours.

Molecule | E02-GL MESF (HT29 hB7H4 clone 26) | E02-GL MESF (HCC1954) | E02-GL MESF (Zr75-1) | E02-GL MESF (HCC1569) | EC50 [1] [nM] | cellular binding [2] | cellular binding (MDA-MB-468 cells) | cellular binding (MX-1 cells) | cellular binding [3] | ADCC activity beyond untreated co-cultured cells [4] | cell killing [5] | tumour volume versus vehicle (HCC1569 xenograft) | tumour volume versus vehicle (MDA-MB-468 xenograft) | tumour volume versus vehicle (OVCAR4 xenograft) | growth suppression of heterogeneous xenografts [6]
B1 | 429,398 MESF | 47,173 MESF | 80,699 MESF | 112,608 MESF | 1.98 | bound similarly | bound | bound | did not bind | significant increase in ADCC activity |  |  |  |  | 
B2 |  |  |  |  |  |  |  |  |  |  | No significant killing | significant decrease in tumour volume | significant decrease in tumour volume | significant decrease in tumour volume | pronounced
